Patent US12679878B2, “CRF2 receptor agonists and their use in therapy” (SANOFI, priority 2020, dated 2026)
Starred links: 1 amine or outer side, 2 acyl side, 3 side chain; linkers in the order of their positions; H or OH if unused. Non-standard residues stand in square brackets, D forms with d. Groups on a side chain read outwards from the residue. No end group written: not given here. *: point of attachment. C18 diacid = O=C(O)CCCCCCCCCCCCCCCCC(=O)*; γGlu = O=C(O)[C@H](CCC(=O)[*:2])N[*:1]; AEEA = NCCOCCOCC(=O)O; Aib = CC(C)(N)C(=O)O

B1: SEQ ID NO: 109 (peptide)
peptide: IVLSLDVPIKLK([AEEA-AEEA-γGlu-C18 diacid])QILLKQERQK[Aib]QREKAETNKQILAQV-NH2
modifications: N-terminus assumed
SMILES: CC[C@H](C)[C@H](N)C(=O)N[C@H](C(=O)N[C@@H](CC(C)C)C(=O)N[C@@H](CO)C(=O)N[C@@H](CC(C)C)C(=O)N[C@@H](CC(=O)O)C(=O)N[C@H](C(=O)N1CCC[C@H]1C(=O)N[C@H](C(=O)N[C@@H](CCCCN)C(=O)N[C@@H](CC(C)C)C(=O)N[C@@H](CCCCNC(=O)COCCOCCNC(=O)COCCOCCNC(=O)CC[C@H](NC(=O)CCCCCCCCCCCCCCCCC(=O)O)C(=O)O)C(=O)N[C@@H](CCC(N)=O)C(=O)N[C@H](C(=O)N[C@@H](CC(C)C)C(=O)N[C@@H](CC(C)C)C(=O)N[C@@H](CCCCN)C(=O)N[C@@H](CCC(N)=O)C(=O)N[C@@H](CCC(=O)O)C(=O)N[C@@H](CCCNC(=N)N)C(=O)N[C@@H](CCC(N)=O)C(=O)N[C@@H](CCCCN)C(=O)NC(C)(C)C(=O)N[C@@H](CCC(N)=O)C(=O)N[C@@H](CCCNC(=N)N)C(=O)N[C@@H](CCC(=O)O)C(=O)N[C@@H](CCCCN)C(=O)N[C@@H](C)C(=O)N[C@@H](CCC(=O)O)C(=O)N[C@H](C(=O)N[C@@H](CC(N)=O)C(=O)N[C@@H](CCCCN)C(=O)N[C@@H](CCC(N)=O)C(=O)N[C@H](C(=O)N[C@@H](CC(C)C)C(=O)N[C@@H](C)C(=O)N[C@@H](CCC(N)=O)C(=O)N[C@H](C(N)=O)C(C)C)[C@@H](C)CC)[C@@H](C)O)[C@@H](C)CC)[C@@H](C)CC)C(C)C)C(C)C
B2: SEQ ID NO: 106 (peptide)
peptide: IVLSLDVPIKLK([AEEA-AEEA-γGlu-C18 diacid])QILLEQERQK[Aib]QREQAETNKQILERV-NH2
modifications: N-terminus assumed
SMILES: CC[C@H](C)[C@H](N)C(=O)N[C@H](C(=O)N[C@@H](CC(C)C)C(=O)N[C@@H](CO)C(=O)N[C@@H](CC(C)C)C(=O)N[C@@H](CC(=O)O)C(=O)N[C@H](C(=O)N1CCC[C@H]1C(=O)N[C@H](C(=O)N[C@@H](CCCCN)C(=O)N[C@@H](CC(C)C)C(=O)N[C@@H](CCCCNC(=O)COCCOCCNC(=O)COCCOCCNC(=O)CC[C@H](NC(=O)CCCCCCCCCCCCCCCCC(=O)O)C(=O)O)C(=O)N[C@@H](CCC(N)=O)C(=O)N[C@H](C(=O)N[C@@H](CC(C)C)C(=O)N[C@@H](CC(C)C)C(=O)N[C@@H](CCC(=O)O)C(=O)N[C@@H](CCC(N)=O)C(=O)N[C@@H](CCC(=O)O)C(=O)N[C@@H](CCCNC(=N)N)C(=O)N[C@@H](CCC(N)=O)C(=O)N[C@@H](CCCCN)C(=O)NC(C)(C)C(=O)N[C@@H](CCC(N)=O)C(=O)N[C@@H](CCCNC(=N)N)C(=O)N[C@@H](CCC(=O)O)C(=O)N[C@@H](CCC(N)=O)C(=O)N[C@@H](C)C(=O)N[C@@H](CCC(=O)O)C(=O)N[C@H](C(=O)N[C@@H](CC(N)=O)C(=O)N[C@@H](CCCCN)C(=O)N[C@@H](CCC(N)=O)C(=O)N[C@H](C(=O)N[C@@H](CC(C)C)C(=O)N[C@@H](CCC(=O)O)C(=O)N[C@@H](CCCNC(=N)N)C(=O)N[C@H](C(N)=O)C(C)C)[C@@H](C)CC)[C@@H](C)O)[C@@H](C)CC)[C@@H](C)CC)C(C)C)C(C)C
B3: SEQ ID NO: 107 (peptide)
peptide: IVLSLDVPIKLK([AEEA-AEEA-γGlu-C18 diacid])QILLKQERQK[Aib]QREQAETNKQILERV-NH2
modifications: N-terminus assumed
SMILES: CC[C@H](C)[C@H](N)C(=O)N[C@H](C(=O)N[C@@H](CC(C)C)C(=O)N[C@@H](CO)C(=O)N[C@@H](CC(C)C)C(=O)N[C@@H](CC(=O)O)C(=O)N[C@H](C(=O)N1CCC[C@H]1C(=O)N[C@H](C(=O)N[C@@H](CCCCN)C(=O)N[C@@H](CC(C)C)C(=O)N[C@@H](CCCCNC(=O)COCCOCCNC(=O)COCCOCCNC(=O)CC[C@H](NC(=O)CCCCCCCCCCCCCCCCC(=O)O)C(=O)O)C(=O)N[C@@H](CCC(N)=O)C(=O)N[C@H](C(=O)N[C@@H](CC(C)C)C(=O)N[C@@H](CC(C)C)C(=O)N[C@@H](CCCCN)C(=O)N[C@@H](CCC(N)=O)C(=O)N[C@@H](CCC(=O)O)C(=O)N[C@@H](CCCNC(=N)N)C(=O)N[C@@H](CCC(N)=O)C(=O)N[C@@H](CCCCN)C(=O)NC(C)(C)C(=O)N[C@@H](CCC(N)=O)C(=O)N[C@@H](CCCNC(=N)N)C(=O)N[C@@H](CCC(=O)O)C(=O)N[C@@H](CCC(N)=O)C(=O)N[C@@H](C)C(=O)N[C@@H](CCC(=O)O)C(=O)N[C@H](C(=O)N[C@@H](CC(N)=O)C(=O)N[C@@H](CCCCN)C(=O)N[C@@H](CCC(N)=O)C(=O)N[C@H](C(=O)N[C@@H](CC(C)C)C(=O)N[C@@H](CCC(=O)O)C(=O)N[C@@H](CCCNC(=N)N)C(=O)N[C@H](C(N)=O)C(C)C)[C@@H](C)CC)[C@@H](C)O)[C@@H](C)CC)[C@@H](C)CC)C(C)C)C(C)C
B4: SEQ ID NO: 104 (peptide)
peptide: IVLSLDVPIKLK([AEEA-AEEA-γGlu-C18 diacid])QILLKQERQK[Aib]QREQAETNKQILAQV-NH2
modifications: N-terminus assumed
SMILES: CC[C@H](C)[C@H](N)C(=O)N[C@H](C(=O)N[C@@H](CC(C)C)C(=O)N[C@@H](CO)C(=O)N[C@@H](CC(C)C)C(=O)N[C@@H](CC(=O)O)C(=O)N[C@H](C(=O)N1CCC[C@H]1C(=O)N[C@H](C(=O)N[C@@H](CCCCN)C(=O)N[C@@H](CC(C)C)C(=O)N[C@@H](CCCCNC(=O)COCCOCCNC(=O)COCCOCCNC(=O)CC[C@H](NC(=O)CCCCCCCCCCCCCCCCC(=O)O)C(=O)O)C(=O)N[C@@H](CCC(N)=O)C(=O)N[C@H](C(=O)N[C@@H](CC(C)C)C(=O)N[C@@H](CC(C)C)C(=O)N[C@@H](CCCCN)C(=O)N[C@@H](CCC(N)=O)C(=O)N[C@@H](CCC(=O)O)C(=O)N[C@@H](CCCNC(=N)N)C(=O)N[C@@H](CCC(N)=O)C(=O)N[C@@H](CCCCN)C(=O)NC(C)(C)C(=O)N[C@@H](CCC(N)=O)C(=O)N[C@@H](CCCNC(=N)N)C(=O)N[C@@H](CCC(=O)O)C(=O)N[C@@H](CCC(N)=O)C(=O)N[C@@H](C)C(=O)N[C@@H](CCC(=O)O)C(=O)N[C@H](C(=O)N[C@@H](CC(N)=O)C(=O)N[C@@H](CCCCN)C(=O)N[C@@H](CCC(N)=O)C(=O)N[C@H](C(=O)N[C@@H](CC(C)C)C(=O)N[C@@H](C)C(=O)N[C@@H](CCC(N)=O)C(=O)N[C@H](C(N)=O)C(C)C)[C@@H](C)CC)[C@@H](C)O)[C@@H](C)CC)[C@@H](C)CC)C(C)C)C(C)C
B5: SEQ ID NO: 108 (peptide)
peptide: IVLSLDVPIKLK([AEEA-AEEA-γGlu-C18 diacid])QILLKQERQK[Aib]QRQKAETNKQILAQV-NH2
modifications: N-terminus assumed
SMILES: CC[C@H](C)[C@H](N)C(=O)N[C@H](C(=O)N[C@@H](CC(C)C)C(=O)N[C@@H](CO)C(=O)N[C@@H](CC(C)C)C(=O)N[C@@H](CC(=O)O)C(=O)N[C@H](C(=O)N1CCC[C@H]1C(=O)N[C@H](C(=O)N[C@@H](CCCCN)C(=O)N[C@@H](CC(C)C)C(=O)N[C@@H](CCCCNC(=O)COCCOCCNC(=O)COCCOCCNC(=O)CC[C@H](NC(=O)CCCCCCCCCCCCCCCCC(=O)O)C(=O)O)C(=O)N[C@@H](CCC(N)=O)C(=O)N[C@H](C(=O)N[C@@H](CC(C)C)C(=O)N[C@@H](CC(C)C)C(=O)N[C@@H](CCCCN)C(=O)N[C@@H](CCC(N)=O)C(=O)N[C@@H](CCC(=O)O)C(=O)N[C@@H](CCCNC(=N)N)C(=O)N[C@@H](CCC(N)=O)C(=O)N[C@@H](CCCCN)C(=O)NC(C)(C)C(=O)N[C@@H](CCC(N)=O)C(=O)N[C@@H](CCCNC(=N)N)C(=O)N[C@@H](CCC(N)=O)C(=O)N[C@@H](CCCCN)C(=O)N[C@@H](C)C(=O)N[C@@H](CCC(=O)O)C(=O)N[C@H](C(=O)N[C@@H](CC(N)=O)C(=O)N[C@@H](CCCCN)C(=O)N[C@@H](CCC(N)=O)C(=O)N[C@H](C(=O)N[C@@H](CC(C)C)C(=O)N[C@@H](C)C(=O)N[C@@H](CCC(N)=O)C(=O)N[C@H](C(N)=O)C(C)C)[C@@H](C)CC)[C@@H](C)O)[C@@H](C)CC)[C@@H](C)CC)C(C)C)C(C)C
B6: SEQ ID NO: 105 (peptide)
peptide: IVLSLDVPIKLK([AEEA-AEEA-γGlu-C18 diacid])QILLEQERQK[Aib]QRQQAETNKQILAQV-NH2
modifications: N-terminus assumed
SMILES: CC[C@H](C)[C@H](N)C(=O)N[C@H](C(=O)N[C@@H](CC(C)C)C(=O)N[C@@H](CO)C(=O)N[C@@H](CC(C)C)C(=O)N[C@@H](CC(=O)O)C(=O)N[C@H](C(=O)N1CCC[C@H]1C(=O)N[C@H](C(=O)N[C@@H](CCCCN)C(=O)N[C@@H](CC(C)C)C(=O)N[C@@H](CCCCNC(=O)COCCOCCNC(=O)COCCOCCNC(=O)CC[C@H](NC(=O)CCCCCCCCCCCCCCCCC(=O)O)C(=O)O)C(=O)N[C@@H](CCC(N)=O)C(=O)N[C@H](C(=O)N[C@@H](CC(C)C)C(=O)N[C@@H](CC(C)C)C(=O)N[C@@H](CCC(=O)O)C(=O)N[C@@H](CCC(N)=O)C(=O)N[C@@H](CCC(=O)O)C(=O)N[C@@H](CCCNC(=N)N)C(=O)N[C@@H](CCC(N)=O)C(=O)N[C@@H](CCCCN)C(=O)NC(C)(C)C(=O)N[C@@H](CCC(N)=O)C(=O)N[C@@H](CCCNC(=N)N)C(=O)N[C@@H](CCC(N)=O)C(=O)N[C@@H](CCC(N)=O)C(=O)N[C@@H](C)C(=O)N[C@@H](CCC(=O)O)C(=O)N[C@H](C(=O)N[C@@H](CC(N)=O)C(=O)N[C@@H](CCCCN)C(=O)N[C@@H](CCC(N)=O)C(=O)N[C@H](C(=O)N[C@@H](CC(C)C)C(=O)N[C@@H](C)C(=O)N[C@@H](CCC(N)=O)C(=O)N[C@H](C(N)=O)C(C)C)[C@@H](C)CC)[C@@H](C)O)[C@@H](C)CC)[C@@H](C)CC)C(C)C)C(C)C

Biological target: human corticotropin-releasing factor 2α (CRF2 α receptor) (human), Q13324
Experiment: cell-based or functional assay

Sequence of human corticotropin-releasing factor 2α (CRF2 α receptor) (human), Q13324 (Q13324 20-411): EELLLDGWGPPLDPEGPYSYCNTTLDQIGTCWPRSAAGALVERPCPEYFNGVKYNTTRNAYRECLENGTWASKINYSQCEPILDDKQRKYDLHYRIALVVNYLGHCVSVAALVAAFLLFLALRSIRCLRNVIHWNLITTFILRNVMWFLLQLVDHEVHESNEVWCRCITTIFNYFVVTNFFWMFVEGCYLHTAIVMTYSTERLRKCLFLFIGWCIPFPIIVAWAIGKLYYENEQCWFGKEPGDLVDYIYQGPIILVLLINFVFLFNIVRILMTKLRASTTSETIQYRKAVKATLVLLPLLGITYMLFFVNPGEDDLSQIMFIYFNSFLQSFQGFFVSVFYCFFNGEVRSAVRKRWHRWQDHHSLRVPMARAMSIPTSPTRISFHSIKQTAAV

Binder	EC50 [nM], 0% HSA	EC50 [nM], 0.1% HSA
B1	0.95 nM	
B2	0.53 nM	13.2 nM
B3	0.81 nM	16.1 nM
B4	0.32 nM	
B5	0.23 nM	
B6	0.41 nM	15.3 nM
